Results from patent publication US20260049138A1 (Chugai, published 2026).

biological target: T1, CD3ε homodimer protein (human, UniProt P07766 23-126, limits assumed, sulfo-tag or biotin label in the ECL assays; amine-coupled to the chip in SPR); test: SPR Biacore T200; CD3ε homodimer on CM4 chip;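 further: Single-residue variant antibodies injected as analyte over CD3ε homodimer immobilized by amine coupling, run at 25 °C in HBS-EP+ buffer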
T1 construct: also called human CD3ε homodimer protein; CD3 (CD3ε)
T1 sequence (P07766 23-126 limits assumed): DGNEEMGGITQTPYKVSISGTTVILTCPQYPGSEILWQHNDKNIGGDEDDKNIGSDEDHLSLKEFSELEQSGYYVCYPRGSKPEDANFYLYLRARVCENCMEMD

Row | Binder | ratio of amounts bound Z=Y/X (altered form / CE115HA000)
1 | CE115HA000 K52I one-arm antibody (antibody, human IgG1, kappa, L234A L235A, N297A, name in Kabat numbering) heavy: QVQLVESGGGVVQPGRSLRLSCAASGFTFSNAWMHWVRQAPGKGLEWVAQIIAKSNNYATYYAESVKGRFTISRDDSKNSLYLQMNSLKTEDTAVYYCRYVHYGAYYGVDAWGQGTTVTVSSASTKGPSVFPLAPSSKSTSGGTAALGCLVKDYFPEPVTVSWNSGALTSGVHTFPAVLQSSGLYSLSSVVTVPSSSLGTQTYICNVNHKPSNTKVDKKVEPKSCDKTHTCPPCPAPEAAGGPSVFLFPPKPKDTLMISRTPEVTCVVVDVSHEDPEVKFNWYVDGVEVHNAKTKPREEQYASTYRVVSVLTVLHQDWLNGKEYKCKVSNKALPAPIEKTISKAKGQPREPQVYTLPPSRCELTKNQVSLSCAVKGFYPSDIAVEWESNGQPENNYKTTPPVLDSDGSFFLVSKLTVDKSRWQQGNVFSCSVMHEALHNHYTQKSLSLSPDYKDDDDK EPKSSDKTHTCPPCPAPELLGGPSVFLFPPKPKDTLMISRTPEVTCVVVDVSHEDPEVKFNWYVDGVEVHNAKTKPREEQYNSTYRVVSVLTVLHQDWLNGKEYKCKVSNKALPAPIEKTISKAKGQPREPQVCTLPPSRDELTKNQVSLWCLVKGFYPSDIAVEWESNGQPENNYKTTPPVLDSDGSFFLYSKLTVDKSRWQQGNVFSCSVMHEALHNRYTQKSLSLSP light: DIVMTQSPLSLPVTPGEPASISCRSSQSLVHSNRNTYLHWYQQKPGQAPRLLIYKVSNRFSGVPDRFSGSGSGTDFTLKISRVEAEDVGVYYCGQGTQVPYTFGQGTKLEIKRTVAAPSVFIFPPSDEQLKSGTASVVCLLNNFYPREAKVQWKVDNALQSGNSQESVTEQDSKDSTYSLSSTLTLSKADYEKHKVYACEVTHQGLSSPVTKSFNRGEC | 0.33
2 | CE115HA000 K52W one-arm antibody (antibody, human IgG1, kappa, L234A L235A, N297A, name in Kabat numbering) heavy: QVQLVESGGGVVQPGRSLRLSCAASGFTFSNAWMHWVRQAPGKGLEWVAQIWAKSNNYATYYAESVKGRFTISRDDSKNSLYLQMNSLKTEDTAVYYCRYVHYGAYYGVDAWGQGTTVTVSSASTKGPSVFPLAPSSKSTSGGTAALGCLVKDYFPEPVTVSWNSGALTSGVHTFPAVLQSSGLYSLSSVVTVPSSSLGTQTYICNVNHKPSNTKVDKKVEPKSCDKTHTCPPCPAPEAAGGPSVFLFPPKPKDTLMISRTPEVTCVVVDVSHEDPEVKFNWYVDGVEVHNAKTKPREEQYASTYRVVSVLTVLHQDWLNGKEYKCKVSNKALPAPIEKTISKAKGQPREPQVYTLPPSRCELTKNQVSLSCAVKGFYPSDIAVEWESNGQPENNYKTTPPVLDSDGSFFLVSKLTVDKSRWQQGNVFSCSVMHEALHNHYTQKSLSLSPDYKDDDDK EPKSSDKTHTCPPCPAPELLGGPSVFLFPPKPKDTLMISRTPEVTCVVVDVSHEDPEVKFNWYVDGVEVHNAKTKPREEQYNSTYRVVSVLTVLHQDWLNGKEYKCKVSNKALPAPIEKTISKAKGQPREPQVCTLPPSRDELTKNQVSLWCLVKGFYPSDIAVEWESNGQPENNYKTTPPVLDSDGSFFLYSKLTVDKSRWQQGNVFSCSVMHEALHNRYTQKSLSLSP light: DIVMTQSPLSLPVTPGEPASISCRSSQSLVHSNRNTYLHWYQQKPGQAPRLLIYKVSNRFSGVPDRFSGSGSGTDFTLKISRVEAEDVGVYYCGQGTQVPYTFGQGTKLEIKRTVAAPSVFIFPPSDEQLKSGTASVVCLLNNFYPREAKVQWKVDNALQSGNSQESVTEQDSKDSTYSLSSTLTLSKADYEKHKVYACEVTHQGLSSPVTKSFNRGEC | 0.22
3 | CE115HA000 K52R one-arm antibody (antibody, human IgG1, kappa, L234A L235A, N297A, name in Kabat numbering) heavy: QVQLVESGGGVVQPGRSLRLSCAASGFTFSNAWMHWVRQAPGKGLEWVAQIRAKSNNYATYYAESVKGRFTISRDDSKNSLYLQMNSLKTEDTAVYYCRYVHYGAYYGVDAWGQGTTVTVSSASTKGPSVFPLAPSSKSTSGGTAALGCLVKDYFPEPVTVSWNSGALTSGVHTFPAVLQSSGLYSLSSVVTVPSSSLGTQTYICNVNHKPSNTKVDKKVEPKSCDKTHTCPPCPAPEAAGGPSVFLFPPKPKDTLMISRTPEVTCVVVDVSHEDPEVKFNWYVDGVEVHNAKTKPREEQYASTYRVVSVLTVLHQDWLNGKEYKCKVSNKALPAPIEKTISKAKGQPREPQVYTLPPSRCELTKNQVSLSCAVKGFYPSDIAVEWESNGQPENNYKTTPPVLDSDGSFFLVSKLTVDKSRWQQGNVFSCSVMHEALHNHYTQKSLSLSPDYKDDDDK EPKSSDKTHTCPPCPAPELLGGPSVFLFPPKPKDTLMISRTPEVTCVVVDVSHEDPEVKFNWYVDGVEVHNAKTKPREEQYNSTYRVVSVLTVLHQDWLNGKEYKCKVSNKALPAPIEKTISKAKGQPREPQVCTLPPSRDELTKNQVSLWCLVKGFYPSDIAVEWESNGQPENNYKTTPPVLDSDGSFFLYSKLTVDKSRWQQGNVFSCSVMHEALHNRYTQKSLSLSP light: DIVMTQSPLSLPVTPGEPASISCRSSQSLVHSNRNTYLHWYQQKPGQAPRLLIYKVSNRFSGVPDRFSGSGSGTDFTLKISRVEAEDVGVYYCGQGTQVPYTFGQGTKLEIKRTVAAPSVFIFPPSDEQLKSGTASVVCLLNNFYPREAKVQWKVDNALQSGNSQESVTEQDSKDSTYSLSSTLTLSKADYEKHKVYACEVTHQGLSSPVTKSFNRGEC | 0.91

Other lines, results leading:

Row | ratio of amounts bound Z=Y/X (altered form / CE115HA000) | Binder
4 | 0.28 | CE115HA000 K52S one-arm antibody (antibody, human IgG1, kappa, L234A L235A, N297A, name in Kabat numbering) heavy: QVQLVESGGGVVQPGRSLRLSCAASGFTFSNAWMHWVRQAPGKGLEWVAQISAKSNNYATYYAESVKGRFTISRDDSKNSLYLQMNSLKTEDTAVYYCRYVHYGAYYGVDAWGQGTTVTVSSASTKGPSVFPLAPSSKSTSGGTAALGCLVKDYFPEPVTVSWNSGALTSGVHTFPAVLQSSGLYSLSSVVTVPSSSLGTQTYICNVNHKPSNTKVDKKVEPKSCDKTHTCPPCPAPEAAGGPSVFLFPPKPKDTLMISRTPEVTCVVVDVSHEDPEVKFNWYVDGVEVHNAKTKPREEQYASTYRVVSVLTVLHQDWLNGKEYKCKVSNKALPAPIEKTISKAKGQPREPQVYTLPPSRCELTKNQVSLSCAVKGFYPSDIAVEWESNGQPENNYKTTPPVLDSDGSFFLVSKLTVDKSRWQQGNVFSCSVMHEALHNHYTQKSLSLSPDYKDDDDK EPKSSDKTHTCPPCPAPELLGGPSVFLFPPKPKDTLMISRTPEVTCVVVDVSHEDPEVKFNWYVDGVEVHNAKTKPREEQYNSTYRVVSVLTVLHQDWLNGKEYKCKVSNKALPAPIEKTISKAKGQPREPQVCTLPPSRDELTKNQVSLWCLVKGFYPSDIAVEWESNGQPENNYKTTPPVLDSDGSFFLYSKLTVDKSRWQQGNVFSCSVMHEALHNRYTQKSLSLSP light: DIVMTQSPLSLPVTPGEPASISCRSSQSLVHSNRNTYLHWYQQKPGQAPRLLIYKVSNRFSGVPDRFSGSGSGTDFTLKISRVEAEDVGVYYCGQGTQVPYTFGQGTKLEIKRTVAAPSVFIFPPSDEQLKSGTASVVCLLNNFYPREAKVQWKVDNALQSGNSQESVTEQDSKDSTYSLSSTLTLSKADYEKHKVYACEVTHQGLSSPVTKSFNRGEC
5 | 0.34 | CE115HA000 K52N one-arm antibody (antibody, human IgG1, kappa, L234A L235A, N297A, name in Kabat numbering) heavy: QVQLVESGGGVVQPGRSLRLSCAASGFTFSNAWMHWVRQAPGKGLEWVAQINAKSNNYATYYAESVKGRFTISRDDSKNSLYLQMNSLKTEDTAVYYCRYVHYGAYYGVDAWGQGTTVTVSSASTKGPSVFPLAPSSKSTSGGTAALGCLVKDYFPEPVTVSWNSGALTSGVHTFPAVLQSSGLYSLSSVVTVPSSSLGTQTYICNVNHKPSNTKVDKKVEPKSCDKTHTCPPCPAPEAAGGPSVFLFPPKPKDTLMISRTPEVTCVVVDVSHEDPEVKFNWYVDGVEVHNAKTKPREEQYASTYRVVSVLTVLHQDWLNGKEYKCKVSNKALPAPIEKTISKAKGQPREPQVYTLPPSRCELTKNQVSLSCAVKGFYPSDIAVEWESNGQPENNYKTTPPVLDSDGSFFLVSKLTVDKSRWQQGNVFSCSVMHEALHNHYTQKSLSLSPDYKDDDDK EPKSSDKTHTCPPCPAPELLGGPSVFLFPPKPKDTLMISRTPEVTCVVVDVSHEDPEVKFNWYVDGVEVHNAKTKPREEQYNSTYRVVSVLTVLHQDWLNGKEYKCKVSNKALPAPIEKTISKAKGQPREPQVCTLPPSRDELTKNQVSLWCLVKGFYPSDIAVEWESNGQPENNYKTTPPVLDSDGSFFLYSKLTVDKSRWQQGNVFSCSVMHEALHNRYTQKSLSLSP light: DIVMTQSPLSLPVTPGEPASISCRSSQSLVHSNRNTYLHWYQQKPGQAPRLLIYKVSNRFSGVPDRFSGSGSGTDFTLKISRVEAEDVGVYYCGQGTQVPYTFGQGTKLEIKRTVAAPSVFIFPPSDEQLKSGTASVVCLLNNFYPREAKVQWKVDNALQSGNSQESVTEQDSKDSTYSLSSTLTLSKADYEKHKVYACEVTHQGLSSPVTKSFNRGEC
6 | 0.18 | CE115HA000 K52Y one-arm antibody (antibody, human IgG1, kappa, L234A L235A, N297A, name in Kabat numbering) heavy: QVQLVESGGGVVQPGRSLRLSCAASGFTFSNAWMHWVRQAPGKGLEWVAQIYAKSNNYATYYAESVKGRFTISRDDSKNSLYLQMNSLKTEDTAVYYCRYVHYGAYYGVDAWGQGTTVTVSSASTKGPSVFPLAPSSKSTSGGTAALGCLVKDYFPEPVTVSWNSGALTSGVHTFPAVLQSSGLYSLSSVVTVPSSSLGTQTYICNVNHKPSNTKVDKKVEPKSCDKTHTCPPCPAPEAAGGPSVFLFPPKPKDTLMISRTPEVTCVVVDVSHEDPEVKFNWYVDGVEVHNAKTKPREEQYASTYRVVSVLTVLHQDWLNGKEYKCKVSNKALPAPIEKTISKAKGQPREPQVYTLPPSRCELTKNQVSLSCAVKGFYPSDIAVEWESNGQPENNYKTTPPVLDSDGSFFLVSKLTVDKSRWQQGNVFSCSVMHEALHNHYTQKSLSLSPDYKDDDDK EPKSSDKTHTCPPCPAPELLGGPSVFLFPPKPKDTLMISRTPEVTCVVVDVSHEDPEVKFNWYVDGVEVHNAKTKPREEQYNSTYRVVSVLTVLHQDWLNGKEYKCKVSNKALPAPIEKTISKAKGQPREPQVCTLPPSRDELTKNQVSLWCLVKGFYPSDIAVEWESNGQPENNYKTTPPVLDSDGSFFLYSKLTVDKSRWQQGNVFSCSVMHEALHNRYTQKSLSLSP light: DIVMTQSPLSLPVTPGEPASISCRSSQSLVHSNRNTYLHWYQQKPGQAPRLLIYKVSNRFSGVPDRFSGSGSGTDFTLKISRVEAEDVGVYYCGQGTQVPYTFGQGTKLEIKRTVAAPSVFIFPPSDEQLKSGTASVVCLLNNFYPREAKVQWKVDNALQSGNSQESVTEQDSKDSTYSLSSTLTLSKADYEKHKVYACEVTHQGLSSPVTKSFNRGEC
